Laboratory results from US10800847.
Values belong to the substance of their own block, whether it stands above or below them.

Legend:
[1] = target: Albumin on negative control beads (serum albumin, HSA/BSA) (human or bovine); assay: Luminex single antigen beads, regular beads (#7), 1:8
[2] = target: HLA-B*4201 (B42) single antigen on Luminex beads (human); assay: Luminex single antigen, regular beads (#7), IVIg 1:8
[3] = target: HLA-B*2705 (B27) single antigen on Luminex beads (human); assay: as above
[4] = target: HLA-B*4006 (B61) single antigen on Luminex beads (human); assay: as above
[5] = target: HLA-B*4001 (B60) single antigen on Luminex beads (human); assay: as above
[6] = target: HLA-B*3901 (B39) single antigen on Luminex beads (human); assay: as above
[7] = target: HLA-B*3801 (B38) single antigen on Luminex beads (human); assay: as above
[8] = target: HLA-B*3701 (B37) single antigen on Luminex beads (human); assay: as above
[9] = target: HLA-B*4601 (B46) single antigen on Luminex beads (human); assay: as above
[10] = target: HLA-B*4701 (B47) single antigen on Luminex beads (human); assay: as above
[11] = target: HLA-B*4501 (B45) single antigen on Luminex beads (human); assay: as above
[12] = target: HLA-B*3501 (B35) single antigen on Luminex beads (human); assay: as above
[13] = target: HLA-B*4403 (B44) single antigen on Luminex beads (human); assay: as above
[14] = target: HLA-B*4201 (B42) single antigen on Luminex beads (human); assay: Luminex single antigen, iBeads (#6), IVIg 1:8
[15] = target: HLA-B*2705 (B27) single antigen on Luminex beads (human); assay: Luminex single antigen, iBeads (#6), IVIg 1:8
[16] = target: HLA-B*4006 (B61) single antigen on Luminex beads (human); assay: Luminex single antigen, iBeads (#6), IVIg 1:8
[17] = target: HLA-B*4101 (B41) single antigen on Luminex beads (human); assay: Luminex single antigen, iBeads (#6), IVIg 1:8
[18] = target: HLA-B*4001 (B60) single antigen on Luminex beads (human); assay: Luminex single antigen, iBeads (#6), IVIg 1:8
[19] = target: HLA-B*4002 (B61) single antigen on Luminex beads (human); assay: Luminex single antigen, iBeads (#6), IVIg 1:8
[20] = target: HLA-B*3901 (B39) single antigen on Luminex beads (human); assay: Luminex single antigen, iBeads (#6), IVIg 1:8
[21] = target: HLA-B*3801 (B38) single antigen on Luminex beads (human); assay: Luminex single antigen, iBeads (#6), IVIg 1:8
[22] = target: HLA-B*3701 (B37) single antigen on Luminex beads (human); assay: Luminex single antigen, iBeads (#6), IVIg 1:8
[23] = target: HLA-B*4402 (B44) single antigen on Luminex beads (human); assay: Luminex single antigen, iBeads (#6), IVIg 1:8
[24] = target: HLA-B*2708 (B27) single antigen on Luminex beads (human); assay: Luminex single antigen, iBeads (#6), IVIg 1:8
[25] = target: HLA-B*4701 (B47) single antigen on Luminex beads (human); assay: Luminex single antigen, iBeads (#6), IVIg 1:8
[26] = target: HLA-B*4501 (B45) single antigen on Luminex beads (human); assay: Luminex single antigen, iBeads (#6), IVIg 1:8
[27] = target: HLA-B*3501 (B35) single antigen on Luminex beads (human); assay: Luminex single antigen, iBeads (#6), IVIg 1:8
[28] = target: HLA-B*4403 (B44) single antigen on Luminex beads (human); assay: Luminex single antigen, iBeads (#6), IVIg 1:8
[29] = target: HLA-B*4201 (B42) single antigen on Luminex beads (human); assay: Luminex single antigen, iBead vs regular bead, IVIg 1:8
[30] = target: HLA-B*2705 (B27) single antigen on Luminex beads (human); assay: as above
[31] = target: HLA-B*4006 (B61) single antigen on Luminex beads (human); assay: as above
[32] = target: HLA-B*3701 (B37) single antigen on Luminex beads (human); assay: as above
[33] = target: HLA-B*4402 (B44) single antigen on Luminex beads (human); assay: as above
[34] = target: HLA-B*2708 (B27) single antigen on Luminex beads (human); assay: as above
[35] = target: HLA-B*4601 (B46) single antigen on Luminex beads (human); assay: as above
[36] = target: HLA-B*4701 (B47) single antigen on Luminex beads (human); assay: as above
[37] = target: HLA-B*4501 (B45) single antigen on Luminex beads (human); assay: as above
[38] = target: HLA-B*3501 (B35) single antigen on Luminex beads (human); assay: as above
[39] = target: HLA-A*0301 (A3) on single antigen beads (human) (UniProt P04439); assay: Luminex, iBead MFI against regular bead MFI, 1:8
[40] = target: Albumin on negative control beads (serum albumin, HSA/BSA) (human or bovine); assay: Luminex single antigen beads, iBeads (#6), 1:8
[41] = target: HLA-A*0301 (A3) on single antigen beads (human) (UniProt P04439); assay: Luminex single antigen beads, iBeads (#6), 1:8
[42] = target: HLA-A*0301 (A3) on single antigen beads (human) (UniProt P04439); assay: Luminex single antigen beads, regular beads (#7), 1:8
[43] = target: HLA-B*4101 (B41) single antigen on Luminex beads (human); assay: Luminex single antigen, regular beads (#7), IVIg 1:8
[44] = target: HLA-B*4002 (B61) single antigen on Luminex beads (human); assay: as above
[45] = target: HLA-B*4402 (B44) single antigen on Luminex beads (human); assay: as above
[46] = target: HLA-B*2708 (B27) single antigen on Luminex beads (human); assay: as above
[47] = target: HLA-B*4601 (B46) single antigen on Luminex beads (human); assay: Luminex single antigen, iBeads (#6), IVIg 1:8
[48] = target: HLA-B*4002 (B61) single antigen on Luminex beads (human); assay: Luminex single antigen, iBead vs regular bead, IVIg 1:8
[49] = target: HLA-B*3801 (B38) single antigen on Luminex beads (human); assay: as above
[50] = target: HLA-B*4403 (B44) single antigen on Luminex beads (human); assay: as above
[51] = target: Albumin on negative control beads (serum albumin, HSA/BSA) (human or bovine); assay: Luminex, iBead MFI against regular bead MFI, 1:8
[52] = target: HLA-A*7401 (A74) single antigen on Luminex beads (human); assay: Luminex single antigen bead assay, iBeads (#6), IVIg 1:8
[53] = target: HLA-A*8001 (A80) single antigen on Luminex beads (human); assay: as above
[54] = target: HLA-A*6901 (A69) single antigen on Luminex beads (human); assay: as above
[55] = target: HLA-A*6802 (A68) single antigen on Luminex beads (human); assay: as above
[56] = target: HLA-A*7401 (A74) single antigen on Luminex beads (human); assay: Luminex single antigen bead assay, regular beads (#7), IVIg 1:8
[57] = target: HLA-A*8001 (A80) single antigen on Luminex beads (human); assay: as above
[58] = target: HLA-A*6901 (A69) single antigen on Luminex beads (human); assay: as above
[59] = target: HLA-A*6802 (A68) single antigen on Luminex beads (human); assay: as above
[60] = target: HLA-A*7401 (A74) single antigen on Luminex beads (human); assay: Luminex single antigen bead assay, iBeads vs regular beads, IVIg 1:8
[61] = target: HLA-A*8001 (A80) single antigen on Luminex beads (human); assay: as above
[62] = target: HLA-A*6901 (A69) single antigen on Luminex beads (human); assay: as above
[63] = target: HLA-A*6802 (A68) single antigen on Luminex beads (human); assay: as above

MFI [1]: 3790 MFI
MFI [2]: 598 MFI
MFI [3]: 1370 MFI
MFI [4]: 3470 MFI
MFI [5]: 1720 MFI
MFI [6]: 0 MFI
MFI [7]: 619 MFI
MFI [8]: 3240 MFI
MFI [9]: 1830 MFI
MFI [10]: 1770 MFI
MFI [11]: 3670 MFI
MFI [12]: 680 MFI
MFI [13]: 3390 MFI
MFI [14]: 286 MFI
MFI [15]: 1080 MFI
MFI [16]: 2370 MFI
MFI [17]: 870 MFI
MFI [18]: 2290 MFI
MFI [19]: 1190 MFI
MFI [20]: 0 MFI
MFI [21]: 0 MFI
MFI [22]: 392 MFI
MFI [23]: 3380 MFI
MFI [24]: 1410 MFI
MFI [25]: 3210 MFI
MFI [26]: 5400 MFI
MFI [27]: 653 MFI
MFI [28]: 2900 MFI
Difference % (iBead against regular bead MFI) [29]: -52%
Difference % (iBead against regular bead MFI) [30]: -21%
Difference % (iBead against regular bead MFI) [31]: -32%
Difference % (iBead against regular bead MFI) [32]: -88%
Difference % (iBead against regular bead MFI) [33]: -22%
Difference % (iBead against regular bead MFI) [34]: 32%
Difference % (iBead against regular bead MFI) [35]: -20%
Difference % (iBead against regular bead MFI) [36]: 81%
Difference % (iBead against regular bead MFI) [37]: 47%
Difference % (iBead against regular bead MFI) [38]: -4%
Difference % (iBead against regular bead) [39]: -100%
MFI [40]: 5030 MFI
MFI [41]: 0 MFI
Substance: GamaSTAN S/D (IVIg, Talecris Biotherapeutics, Inc., USA) (antibody)

MFI [1]: 10800 MFI
MFI [42]: 0 MFI
MFI [2]: 455 MFI
MFI [3]: 388 MFI
MFI [4]: 5390 MFI
MFI [43]: 716 MFI
MFI [5]: 1680 MFI
MFI [44]: 569 MFI
MFI [6]: 0 MFI
MFI [7]: 1360 MFI
MFI [8]: 6130 MFI
MFI [45]: 6460 MFI
MFI [46]: 0 MFI
MFI [9]: 3010 MFI
MFI [10]: 2550 MFI
MFI [11]: 1110 MFI
MFI [12]: 1670 MFI
MFI [13]: 1110 MFI
MFI [14]: 1090 MFI
MFI [15]: 1660 MFI
MFI [16]: 2140 MFI
MFI [17]: 1490 MFI
MFI [19]: 1680 MFI
MFI [20]: 242 MFI
MFI [21]: 1380 MFI
MFI [22]: 3640 MFI
MFI [23]: 1870 MFI
MFI [24]: 1340 MFI
MFI [47]: 3540 MFI
MFI [25]: 2800 MFI
MFI [26]: 2110 MFI
MFI [27]: 1610 MFI
MFI [28]: 2400 MFI
Difference % (iBead against regular bead MFI) [29]: 139%
Difference % (iBead against regular bead MFI) [30]: 327%
Difference % (iBead against regular bead MFI) [31]: -60%
Difference % (iBead against regular bead MFI) [48]: 195%
Difference % (iBead against regular bead MFI) [49]: 1%
Difference % (iBead against regular bead MFI) [32]: -41%
Difference % (iBead against regular bead MFI) [33]: -71%
Difference % (iBead against regular bead MFI) [35]: 17%
Difference % (iBead against regular bead MFI) [36]: 10%
Difference % (iBead against regular bead MFI) [37]: 91%
Difference % (iBead against regular bead MFI) [38]: -3%
Difference % (iBead against regular bead MFI) [50]: 116%
Difference % (iBead against regular bead) [51]: -34%
MFI [40]: 7150 MFI
Substance: Gamunex-C Lot NKLG1 (IVIg) (antibody)

MFI [52]: 431 MFI
MFI [53]: 2850 MFI
MFI [54]: 2410 MFI
MFI [55]: 2080 MFI
MFI [56]: 80 MFI
MFI [57]: 2700 MFI
MFI [58]: 1880 MFI
MFI [59]: 2060 MFI
Difference % (iBead MFI against regular bead MFI) [60]: 437%
Difference % (iBead MFI against regular bead MFI) [61]: 5%
Difference % (iBead MFI against regular bead MFI) [62]: 28%
Difference % (iBead MFI against regular bead MFI) [63]: 1%
Substance: IVIg GamaSTAN S/D (Talecris Biotherapeutics, Inc., USA) (antibody)
